{"source": "IntAct's records for PubMed 16698552", "parents": {"B1": {"name": "Eukaryotic translation initiation factor 4 gamma 1 (Homo sapiens), Q04637-8 (parent)", "chain": "MNKAPQSTGPPPAPSPGLPQPAFPPGQTAPVVFSTPQATQMNTPSQPRQHFYPSRAQPPSSAASRVQSAAPARPGPAAHVYPAGSQVMMIPSQISYPASQGAYYIPGQGRSTYVVPTQQYPVQPGAPGFYPGASPTEFGTYAGAYYPAQGVQQFPTGVAPTPVLMNQPPQIAPKRERKTIRIRDPNQGGKDITEEIMSGARTASTPTPPQTGGGLEPQANGETPQVAVIVRPDDRSQGAIIADRPGLPGPEHSPSESQPSSPSPTPSPSPVLEPGSEPNLAVLSIPGDTMTTIQMSVEESTPISRETGEPYRLSPEPTPLAEPILEVEVTLSKPVPESEFSSSPLQAPTPLASHTVEIHEPNGMVPSEDLEPEVESSPELAPPPACPSESPVPIAPTAQPEELLNGAPSPPAVDLSPVSEPEEQAKEVTASMAPPTIPSATPATAPSATSPAQEEEMEEEEEEEEGEAGEAGEAESEKGGEELLPPESTPIPANLSQNLEAAAATQVAVSVPKRRRKIKELNKKEAVGDLLDAFKEANPAVPEVENQPPAGSNPGPESEGSGVPPRPEEADETWDSKEDKIHNAENIQPGEQKYEYKSDQWKPLNLEEKKRYDREFLLGFQFIFASMQKPEGLPHISDVVLDKANKTPLRPLDPTRLQGINCGPDFTPSFANLGRTTLSTRGPPRGGPGGELPRGPQAGLGPRRSQQGPRKEPRKIIATVLMTEDIKLNKAEKAWKPSSKRTAADKDRGEEDADGSKTQDLFRRVRSILNKLTPQMFQQLMKQVTQLAIDTEERLKGVIDLIFEKAISEPNFSVAYANMCRCLMALKVPTTEKPTVTVNFRKLLLNRCQKEFEKDKDDDEVFEKKQKEMDEAATAEERGRLKEELEEARDIARRRSLGNIKFIGELFKLKMLTEAIMHDCVVKLLKNHDEESLECLCRLLTTIGKDLDFEKAKPRMDQYFNQMEKIIKEKKTSSRIRFMLQDVLDLRGSNWVPRRGDQGPKTIDQIHKEAEMEEHREHIKVQQLMAKGSDKRRGGPPGPPISRGLPLVDDGGWNTVPISKGSRPIDTSRLTKITKPGSIDSNNQLFAPGGRLSWGKGSSGGSGAKPSDAASEAARPATSTLNRFSALQQAVPTESTDNRRVVQRSSLSRERGEKAGDRGDRLERSERGGDRGDRLDRARTPATKRSFSKEVEERSRERPSQPEGLRKAASLTEDRDRGRDAVKREAALPPVSPLKAALSEEELEKKSKAIIEEYLHLNDMKEAVQCVQELASPSLLFIFVRHGVESTLERSAIAREHMGQLLHQLLCAGHLSTAQYYQGLYEILELAEDMEIDIPHVWLYLAELVTPILQEGGVPMGELFREITKPLRPLGKAASLLLEILGLLCKSMGPKKVGTLWREAGLSWKEFLPEGQDIGAFVAEQKVEYTLGEESEAPGQRALPSEELNRQLEKLLKEGSSNQRVFDWIEANLSEQQIVSNTLVRALMTAVCYSAIIFETPLRVDVAVLKARAKLLQKYLCDEQKELQALYALQALVVTLEQPPNLLRMFFDALYDEDVVKEDAFYSWESSKDPAEQQGKGVALKSVTAFFKWLREAEEESDHN"}}}
{"variants_of": "B1", "conditions": "with if4g1_human EIF4G1, Q04637"}
{"variant": "I1278A;F1279A;V1280A", "effect of a mutation on the interaction": "disrupting interaction"}
